This note sets out measurements from article PMC8244865, “Recruitment of phospholipase Cγ1 to the non-structural membrane protein pK15 of Kaposi Sarcoma-associated herpesvirus promotes its Src-dependent phosphorylation” (PLoS Pathogens, 2021).

Test [1] has as its system PLCγ1 SA. Nature of the test: GST-pulldown, PLCγ1 SA. It is filed as binding. As to the method:
Fig 2 K15 phosphorylation results in a stronger binding to PLCγ1. (A) An expression plasmid for an S-tagged full length PLCγ1 or the empty vector (EV) were transfected in HEK-293T cells. After 30h cells were lysed and a GST-pulldown assay was performed with GST-fused pK15 CT (WT), the pK15 CT Y^481F mutant (Y^481F) or GST that had been bound to glutathione beads and previously phosphorylated by GST-6xHis Src (+) or left unphosphorylated (-). Bound proteins were analysed by WB using antibodies to the S tag on PLCγ1 and pTyr. (B) Untransfected HEK-293T cells were lysed and a GST-pulldown assay with pre-phosphorylated (+) or unphosphorylated (-) GST-fused pK15 CT WT/Y^481F or GST was performed and analysed by WB as in (A). (C) An expression plasmid for an S-tagged PLCγ1 SA or the empty vector were transfected in HEK-293T cells. […]
(§1) HEK293T cells were washed once with cold PBS 30 hours after transfection, lysed in IP buffer (50 mM Tris pH7.6, 60 mM NaCl, 6.25 mM EDTA, 1% (v/v) glycerol, 0.04% (v/v) NP-40) on ice for 30 minutes, sonicated shortly and cleared by centrifugation for 10 minutes at 20.000g, 4°C. […] Beads were then washed 5 times in 500 μl IP buffer (or for purified proteins IP buffer with 200 mM NaCl), suspended in 10 μl of 5x Laemmli sample buffer (60 mM Tris pH6.8, 24% (v/v) glycerol, 2% (v/v) SDS, 5% (v/v) β-mercaptoethanol, 0.01% Bromphenol Blue) and analysed by western blot.

Test [2] concerns full length PLCγ1 R586L+R694L. Nature of the test: GST-pulldown, full-length PLCγ1 double mutant. Particulars: phosphorylated; binding eliminated for SA domain but not full length. As to the method:
Fig 3 Contribution of individual PLCγ1 SH2 domains to the interaction with phosphorylated pK15. The pK15 CT fused to GST, its Y^481F mutant, or GST alone were bound to glutathione beads, phosphorylated in vitro (+) or left unphosphorylated (-), and a GST pulldown was performed 32h after transfection into HEK-293T cells of expression vectors for S-tagged full-length PLCγ1 (FL) (A) or PLCγ1 SA (B) containing the indicated mutations. (C) pK15 CT WT, its Y^481F mutant or GST were bound to glutathione beads, phosphorylated in vitro (+) or left unphosphorylated (-), and used for a GST pulldown assay 32h after transfecting HEK 293T cells with expression vectors for S-tagged individual PLCγ1 nSH2 or cSH2 domains. […]
as §1

Test [3] has as its system PLCγ1 SA domain. Nature of the test: AlphaLISA, PLCγ1 SA. It counts as binding. As to conditions: phosphorylated by 2xStrep-Src, 300 nM each protein, 1 h room temperature, 615 nm, at least two independent experiments. As to the method:
Fig 4 The PLCγ1 cSH2 domain is required for the binding of PLCγ1 to phosphorylated pK15 in vitro and may serve as a dominant-negative inhibitor. GST-fused pK15 cytoplasmic tail WT (A), or its truncated mutant N2 [51] (B), were phosphorylated in vitro by 2xStrep-Src and an AlphaLISA was performed with the indicated His-tagged fragments of PLCγ1. Mean and standard deviation from at least two independent experiments with two technical replicates each are depicted. GST fusion proteins of the N1 (C) or N2 (D) truncation mutants of the pK15 cytoplasmic tail were phosphorylated in vitro by 2xStrep-Src and their interaction with recombinant purified PLCγ1 tSH2 (tandem SH2) or SA (γ-specific array) domains was measured by AlphaLISA in the presence of increasing concentrations (300 nM, 600 nM, 900 nM, 1200 nM) of the purified PLCγ1 cSH2. […] After 48h lysates were collected and analysed by Western blot using an antibody to PLCγ1 pY^783 to assess the level of PLCγ1 phosphorylation. (F) The intensities of the pPLCγ1 bands shown in panel E were quantified by densitometry, normalized to the values obtained with the empty vector (EV) in the presence of pK15, and plotted as relative values. […]
His-tagged PLCγ1 (SA, tSH2 or the isolated SH2 domains) was incubated at room temperature with GST-tagged K15P or its mutants for 1 hour. […] Emission at 615 nm was detected on BioTek Synergy 2 plate reader.
(Alpha assays give light when donor and acceptor beads are brought close together.)

B1: pK15 CT^WT: pK15 cytoplasmic tail fused to GST at its N-terminal end, phosphorylated in vitro by Src (protein)
chain: SQLLNEVELQEVNRDPPNVFGYASILVSGAEESREPSPQPDQSGMSILRVDGGSAFRIDTAQAATQPTDDLYEEVLFPRN
modifications: tyrosine-phosphorylated in vitro by Src; sites not stated for this construct; left off: GST, N-terminal, kept
Consider B1, for which, in test [1] (in vitro phosphorylated by Src, transfected SA in HEK 293, Western blot), the “interaction with PLCγ1 SA (GST-pulldown)” value is on record as “bound more strongly to the SA region than the phosphorylated pK15 CT^Y481F mutant”. In addition, in test [1] (without prior in vitro phosphorylation by Src kinase), the “interaction with PLCγ1 SA, unphosphorylated (GST-pulldown)” value was “marginal binding to PLCγ1 SA”. Also, the “binding of double mutant (GST-pulldown)” value in test [2] was “not to full length PLCγ1”. Besides, the “interaction (AlphaLISA)” value was “does interact with the PLCγ1 SA” in test [3] and “only bound weakly to PLCγ1 SA” in test [3] (listed as pK15 CT^N2).
